Source: article PMC4407695 (Journal of molecular biology, 2014)
Where a chain is given by its changes, count along the chain named.

T1: wild-type full-length Merlin(wt) (human, UniProt P35240 1-595)
T1 sequence (looked up): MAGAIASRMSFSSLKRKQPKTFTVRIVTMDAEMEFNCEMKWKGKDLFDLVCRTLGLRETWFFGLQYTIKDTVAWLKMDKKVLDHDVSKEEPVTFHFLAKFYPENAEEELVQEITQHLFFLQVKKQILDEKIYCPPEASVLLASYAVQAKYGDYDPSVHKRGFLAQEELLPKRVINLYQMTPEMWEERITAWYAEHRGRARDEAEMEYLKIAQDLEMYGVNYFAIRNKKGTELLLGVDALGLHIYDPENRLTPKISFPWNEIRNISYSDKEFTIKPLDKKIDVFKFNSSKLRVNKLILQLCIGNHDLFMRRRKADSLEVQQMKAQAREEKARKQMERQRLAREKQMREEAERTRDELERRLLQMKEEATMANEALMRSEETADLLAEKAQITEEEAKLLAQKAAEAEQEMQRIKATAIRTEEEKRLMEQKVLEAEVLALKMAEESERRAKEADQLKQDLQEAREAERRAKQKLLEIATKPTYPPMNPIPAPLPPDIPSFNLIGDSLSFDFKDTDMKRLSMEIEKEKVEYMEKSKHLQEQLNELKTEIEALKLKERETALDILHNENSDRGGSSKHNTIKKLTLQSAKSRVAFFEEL

T2: Merlin(S518D) (human, UniProt P35240 1-595, S518D)
T2 sequence (looked up): T1 sequence (looked up) with S518D

B1: NHERF1 (natural protein, UniProt O14745 1-358, looked up)
chain: MSADAAAGAPLPRLCCLEKGPNGYGFHLHGEKGKLGQYIRLVEPGSPAEKAGLLAGDRLVEVNGENVEKETHQQVVSRIRAALNAVRLLVVDPETDEQLQKLGVQVREELLRAQEAPGQAEPPAAAEVQGAGNENEPREADKSHPEQRELRPRLCTMKKGPSGYGFNLHSDKSKPGQFIRSVDPDSPAEASGLRAQDRIVEVNGVCMEGKQHGDVVSAIRAGGDETKLLVVDRETDEFFKKCRVIPSQEHLNGPLPVPFTNGEIQKENSREALAEAALESPRPALVRSASSDTSEELNSQDSPPKQDSTAPSSTSSSDPILDFNISLAMAKERAHQKRSSKRAPQMDWSKKNELFSNL
B2: FERM domain of Merlin (domain or fragment, human, UniProt P35240 22-311, looked up)
chain: FTVRIVTMDAEMEFNCEMKWKGKDLFDLVCRTLGLRETWFFGLQYTIKDTVAWLKMDKKVLDHDVSKEEPVTFHFLAKFYPENAEEELVQEITQHLFFLQVKKQILDEKIYCPPEASVLLASYAVQAKYGDYDPSVHKRGFLAQEELLPKRVINLYQMTPEMWEERITAWYAEHRGRARDEAEMEYLKIAQDLEMYGVNYFAIRNKKGTELLLGVDALGLHIYDPENRLTPKISFPWNEIRNISYSDKEFTIKPLDKKIDVFKFNSSKLRVNKLILQLCIGNHDLFMRRR

Legend:
FERM domain of Ezrin = FERM domain of Ezrin (UniProt P15311 2-296); assay: ITC
FERM domain of Merlin = biological target: B2; assay: ITC
[1] = biological target: T1, wild-type full-length Merlin(wt); assay: ITC
Merlin(S518D) [2] = biological target: T2, Merlin(S518D); assay: ITC
[3] = biological target: T1, wild-type full-length Merlin(wt); assay: SPR
Merlin(S518D) [4] = biological target: T2, Merlin(S518D); assay: SPR
NHERF1 [5] = biological target: B1; assay: ITC
NHERF1 [6] = biological target: B1; assay: SPR

Chain of FERM domain of Ezrin (P15311 2-296): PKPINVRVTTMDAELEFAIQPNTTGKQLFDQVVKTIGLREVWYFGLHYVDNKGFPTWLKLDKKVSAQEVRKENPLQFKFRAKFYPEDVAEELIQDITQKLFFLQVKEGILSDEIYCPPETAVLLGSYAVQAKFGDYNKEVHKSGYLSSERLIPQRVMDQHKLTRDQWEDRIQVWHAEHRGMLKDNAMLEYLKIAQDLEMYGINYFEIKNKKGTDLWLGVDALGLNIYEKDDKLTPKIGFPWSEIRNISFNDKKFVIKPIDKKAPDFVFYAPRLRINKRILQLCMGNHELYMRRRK

stoichiometry N (FERM domain of Ezrin) | stoichiometry N (FERM domain of Merlin) | Kd [1] [nM] | stoichiometry N [1] | Kd (Merlin(S518D) [2]) [nM] | stoichiometry N (Merlin(S518D) [2]) | Kd [3] [nM] | Kd (Merlin(S518D) [4]) [nM] | Kd (NHERF1 [5]) [nM] | Kd (NHERF1 [6]) [nM] | Binder
1.06 | 0.93 | 855 ± 160 | 0.37 | 1570 ± 322 | 0.39 | 956 ± 70 | 1240 ± 220 | – | – | B1
– | – | – | – | – | – | – | – | 649 ± 18 | 459 ± 38 | B2
